The record followed here is patent US20190127461A1 (ORDER MADE MEDICAL RESEARCH, published 2019).

In assay [1] the target is T1, ICD4 (region consisting of amino acids at positions 196 to 299 of MCT5) (human).
T1 construct: Immunogen and ELISA coating antigen
T1 chain: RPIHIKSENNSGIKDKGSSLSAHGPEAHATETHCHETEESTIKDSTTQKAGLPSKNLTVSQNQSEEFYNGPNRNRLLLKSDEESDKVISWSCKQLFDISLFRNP
Kind of assay: ELISA, hybridoma culture supernatant on immobilized ICD4, POD-labeled anti-mouse immunoglobulin. How it is done: Blood samples which had been collected from mice through their tail veins and diluted 1/160,000 with PBS(-), or alternatively, culture supernatants collected from wells in which hybridomas were growing were analyzed for their antibody titer. ICD4 was diluted with PBS(-) and dispensed into 96-well ELISA plates (Nunc) in an amount of 50 ng per well, and immobilized onto the plate surface by being allowed to stand at room temperature for 1 hour. Then, after the plates were washed three times with 350 μL of TBS-T (25 mM Tris, 150 mM NaCl, 0.05% (v/v) Tween 20, pH 7.4), PBS-T containing 5% skimmed milk was dispensed in a volume of 300 μL per well to conduct blocking for 1 hour at room temperature. After washing with TBS-T, the diluted blood samples or the culture supernatants were dispensed into the ICD4-immobilized ELISA plates and reacted for 1 hour at room temperature. After washing with TBS-T, a 10,000-fold dilution of peroxidase (hereinafter abbreviated as POD)-labeled anti-mouse immunoglobulin antibody (BETHYL) was dispensed in a volume of 100 μL per well and reacted for 1 hour at room temperature. […] After the reaction was stopped with 1.5 N sulfuric acid, the plates were measured for absorbance at 490 nm with a plate reader (Molecular Devices). […]
A general note: An ELISA detects its analyte on a solid surface through an enzyme-linked reagent.

Assay [2] has as its target T2, MCT5 (Monocarboxylate transporter 5) (human, UniProt O15374 1-487).
T2 construct: Membrane transporter on intact human cancer cells: MCF7-MCT5 (overexpressing), and MDA-MB231, HCT116 and SK-BR3 (endogenous); also called native MCT5; MCT5 isoform 1
Description: flow cytometry on intact HCT116 cells, Alexa 488-labeled secondary antibody; negative control is cells without IMI4C4a. How it is done:
HCT116 cells (which are human colorectal cancer cells) were cultured to reach 90% confluency. After being washed twice with PBS(-), the cells were collected with Accutase (Life Technologies) and suspended at 4×10⁵ cells in […] of PBS(-) containing 1% FBS. To this suspension, the antibody IMI4C4a was added at a final concentration of […] and reacted on ice for 60 minutes. For use as a control, a cell suspension free from the antibody IMI4C4a was prepared.
In general terms: Flow cytometry measures light scatter and fluorescence of single cells or particles in a stream.

T2 sequence (O15374 whole entry, canonical isoform): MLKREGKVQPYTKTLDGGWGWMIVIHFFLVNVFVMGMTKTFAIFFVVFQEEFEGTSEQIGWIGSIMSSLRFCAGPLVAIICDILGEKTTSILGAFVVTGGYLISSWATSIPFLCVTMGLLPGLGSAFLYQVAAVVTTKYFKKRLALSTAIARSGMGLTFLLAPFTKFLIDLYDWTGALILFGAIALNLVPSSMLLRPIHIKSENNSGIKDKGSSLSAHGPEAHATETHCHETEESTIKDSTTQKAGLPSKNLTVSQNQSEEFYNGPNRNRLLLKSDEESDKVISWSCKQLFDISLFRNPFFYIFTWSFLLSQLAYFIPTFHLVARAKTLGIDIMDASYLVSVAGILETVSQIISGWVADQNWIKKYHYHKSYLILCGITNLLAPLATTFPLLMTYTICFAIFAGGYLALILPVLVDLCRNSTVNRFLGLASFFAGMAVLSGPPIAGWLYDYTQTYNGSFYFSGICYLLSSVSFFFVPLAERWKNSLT

B1: anti-MCT5 monoclonal antibody of clone No. IMI4C4a (antibody, V domains shown)
VH: EVQLQQSGAELVRPGALVKLSCKASGFNIKDYYMFWVKQRPEQGLEWIGWIDPENGNTIFDPKFQGKASITADTSSNTAYLQLSSLTSEDTAVYYCARMITTYYYAMDFWGQGTSVTVSS
VL: QLVLTQSSSASFSLGASAKLTCTLSSQHSTYTIEWYQQQPLKPPKYVMELKKDGSHSTGDGIPDRFSGSSSGADRYLSVSSIQPEDEAIYICGVGYTIKEQFVYVFGGGTK
notes: Mouse monoclonal antibody from a hybridoma, detected with anti-mouse IgG; also called antibody IMI4C4a; Mouse-Mouse hybridoma IMI4C4a
For B1, the binding result in assay [1] and in assay [2] was “binds” throughout.
